The target of the experiment is T1, HLA-A2 molecule (MHC class I heterodimer, no peptide of the filing added) (human).
T1 construct: as control target of the CTL assays it stood on T2 cells without added peptide or on COS-7 cells transfected with HLA-A2 alone; The subtype is printed only as HLA-A2.01 for the transfected gene; also called HLA-A2.01; MHC class-I molecule
Briefly: HLA-A2 assembly/stabilisation in 0.174 cell lysate with 10 and 20 uM peptide, immunoprecipitation with mAb BB7.2, gel.

Experimental: It is an HLA-A2 presenting cell line deficient in the pathway which supplies peptides to the endoplasmic reticulum, the site of assembly of MHC class-I heterodimers. The cell line can assemble MHC class-I molecules, but these are unstable and, on cell lysis, dissociate into free heavy and light chains during overnight incubation. The heterodimers can, however, be stabilized in vitro via addition of appropriate peptide ligands. […] Thus, the stabilized molecules can be immunoprecipitated with antibodies specific for the MHC class-I molecule.
In the first part of these experiments, peptides were tested to determine if they facilitated assembly of HLA-A2 in the cell line. […] The cells were then washed, once, with phosphate buffered saline, and then resuspended in 10 ml of lysis buffer (0.5% NP-40; 0.5% Mega 9, 150 mM NaCl, 5 mM EDTA, 50 mM Tris [pH 7.5], 2 mM phenylmethylsulfonylfluoride, 5 mM iodoacetamide). The lysates were then incubated with peptide (10 μM and 20 μM), for 15–18 hours. Nuclei were then pelleted in a microfuge, and the lysates were precleared, overnight, at 4° C. with 0.2 ml of washed, 10% (w/v) Staphylococcus A organisms. […] The mixtures were incubated for 90 minutes on ice, followed by addition of bovine serum albumin to 1% (w/v), and 100 ul of 5% (w/v) protein-A Sepharose beads.

B1: peptide SEQ ID NO: 7, Thr Leu Val Glu Val Thr Leu Gly Glu Val (peptide)
peptide: TLVEVTLGEV
For the molecule B1, the binding result was “binds”.

The values above are taken from patent US6682731 (LUDWIG INSTITUTE FOR CANCER RESEARCH, dated 2004).
